This assay deals with ectodomain of human DPP4 (residues 39-766) (human, UniProt P27487 39-766). The experiment in a line: SPR.

B1: MERS-CoV RBD (residues 367-588) (domain or fragment)
chain: EAKPSGSVVEQAEGVECDFSPLLSGTPPQVYNFKRLVFTNCNYNLTKLLSLFSVNDFTCSQISPAAIASNCYSSLILDYFSYPLSMKSDLSVSSAGPISQFNYKQSFSNPTCLILATVPHNLTTITKPLKYSYINKCSRFLSDDRTEVPQLVNANQYSPCVSIVPSTVWEDGDYYRKQLSPLEGGGWLVASGSTVAMTEQLQMGFGITVQYGTDTNSVCPKL
For B1, the binding result is on record as “binds”.

For the origin of these results see paper PMC7104183 (Cell Reports, 2018).
